Source: patent publication US20190015483A1 (CSL BEHRING RECOMBINANT FACILITY, published 2019)

T1: recombinant Factor VIII (CSL627, rVIII-SingleChain) (Homo sapiens (Human), UniProt P00451 20-2351)
T1 construct: also called FVIII
T1 sequence: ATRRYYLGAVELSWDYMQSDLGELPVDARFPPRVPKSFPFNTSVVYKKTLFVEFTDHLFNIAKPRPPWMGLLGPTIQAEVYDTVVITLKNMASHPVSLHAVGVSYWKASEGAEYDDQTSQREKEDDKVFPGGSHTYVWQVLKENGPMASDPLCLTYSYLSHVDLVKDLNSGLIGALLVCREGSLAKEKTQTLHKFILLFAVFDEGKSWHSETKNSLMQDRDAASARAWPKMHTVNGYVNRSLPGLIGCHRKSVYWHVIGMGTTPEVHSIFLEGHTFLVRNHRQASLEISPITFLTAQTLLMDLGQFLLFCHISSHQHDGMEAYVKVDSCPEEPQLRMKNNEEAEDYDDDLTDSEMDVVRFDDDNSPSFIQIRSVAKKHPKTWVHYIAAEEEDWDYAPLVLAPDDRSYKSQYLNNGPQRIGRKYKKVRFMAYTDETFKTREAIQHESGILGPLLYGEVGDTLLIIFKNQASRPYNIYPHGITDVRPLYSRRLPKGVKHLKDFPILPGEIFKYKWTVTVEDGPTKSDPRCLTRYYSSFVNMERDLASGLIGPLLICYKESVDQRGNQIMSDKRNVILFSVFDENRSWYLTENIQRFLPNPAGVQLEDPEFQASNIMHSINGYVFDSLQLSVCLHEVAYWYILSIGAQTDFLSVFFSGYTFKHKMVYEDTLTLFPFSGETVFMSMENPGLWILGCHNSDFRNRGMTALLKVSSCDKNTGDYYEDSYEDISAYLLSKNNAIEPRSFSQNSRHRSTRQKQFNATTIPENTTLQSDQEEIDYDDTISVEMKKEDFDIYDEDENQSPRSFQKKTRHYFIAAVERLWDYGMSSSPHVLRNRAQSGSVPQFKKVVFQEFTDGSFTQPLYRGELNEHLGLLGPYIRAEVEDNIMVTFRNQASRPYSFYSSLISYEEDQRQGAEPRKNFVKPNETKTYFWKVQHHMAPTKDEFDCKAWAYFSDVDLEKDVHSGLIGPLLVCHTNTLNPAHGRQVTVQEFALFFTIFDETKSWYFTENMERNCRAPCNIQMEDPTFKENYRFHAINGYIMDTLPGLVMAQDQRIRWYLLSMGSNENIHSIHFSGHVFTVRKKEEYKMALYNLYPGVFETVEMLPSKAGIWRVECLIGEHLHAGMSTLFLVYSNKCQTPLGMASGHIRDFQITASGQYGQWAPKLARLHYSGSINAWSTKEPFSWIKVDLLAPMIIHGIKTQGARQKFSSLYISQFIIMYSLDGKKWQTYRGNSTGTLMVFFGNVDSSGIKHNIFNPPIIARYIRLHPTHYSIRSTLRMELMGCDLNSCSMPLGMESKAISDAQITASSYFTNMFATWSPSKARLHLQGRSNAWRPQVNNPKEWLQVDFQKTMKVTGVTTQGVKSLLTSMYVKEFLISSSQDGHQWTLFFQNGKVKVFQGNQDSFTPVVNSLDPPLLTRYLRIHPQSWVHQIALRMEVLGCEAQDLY


biological target: T1, recombinant Factor VIII (CSL627, …); experiment: SPR, anti-His capture
In short: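 Screening format: one FVIII level, 1 nM, with 5-minute association and 5-minute dissociation phases over mutants held at 40-150 RU on immobilised anti-His. Signals were corrected by reference-surface and blank subtraction before 1:1 kinetic fitting.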

| Binder | Kd [nM] | koff [s⁻¹] | kon [M⁻¹ s⁻¹] | fold decrease in off-rate against wild type vWF [fold] | fold increase in affinity against wild type vWF [fold] |
| --- | --- | --- | --- | --- | --- |
| Hu-vWF[764-1270]-8His S764P-S766E (other) PLECRPPMVKLVCPADNLRAEGLECTKTCQNYDLECMSMGCVSGCLCPPGMVRHENRCVALERCPCFHQGKEYAPGETVKIGCNTCVCRDRKWNCTDHVCDATCSTIGMAHYLTFDGLKYLFPGECQYVLVQDYCGSNPGTFRILVGNKGCSHPSVKCKKRVTILVEGGEIELFDGEVNVKRPMKDETHFEVVESGRYIILLLGKALSVVWDRHLSISVVLKQTYQEKVCGLCGNFDGIQNNDLTSSNLQVEEDPVDFGNSWKVSSQCADTRKVPLDSSPATCHNNIMKQTMVDSSCRILTSDVFQDCNKLVDPEPYLDVCIYDTCSCESIGDCACFCDTIAAYAHVCAQHGKVVTWRTATLCPQSCEERNLRENGYECEWRYNSCAPACQVTCQHPEPLACPVQCVEGCHAHCPPGKILDELLQTCVDPEDCPVCEVAGRRFASGKKVTLNPSDPEHCQICHCDVVNLTCEACQEPGGLVVPPTDAPVSPTTLYVEDISEPPLHDFHHHHHHHH | 0.016 | 0.000128 | 8.04e+06 | – | – |
| Hu-vWF[764-1270]-8His S764P-S766H (other) PLHCRPPMVKLVCPADNLRAEGLECTKTCQNYDLECMSMGCVSGCLCPPGMVRHENRCVALERCPCFHQGKEYAPGETVKIGCNTCVCRDRKWNCTDHVCDATCSTIGMAHYLTFDGLKYLFPGECQYVLVQDYCGSNPGTFRILVGNKGCSHPSVKCKKRVTILVEGGEIELFDGEVNVKRPMKDETHFEVVESGRYIILLLGKALSVVWDRHLSISVVLKQTYQEKVCGLCGNFDGIQNNDLTSSNLQVEEDPVDFGNSWKVSSQCADTRKVPLDSSPATCHNNIMKQTMVDSSCRILTSDVFQDCNKLVDPEPYLDVCIYDTCSCESIGDCACFCDTIAAYAHVCAQHGKVVTWRTATLCPQSCEERNLRENGYECEWRYNSCAPACQVTCQHPEPLACPVQCVEGCHAHCPPGKILDELLQTCVDPEDCPVCEVAGRRFASGKKVTLNPSDPEHCQICHCDVVNLTCEACQEPGGLVVPPTDAPVSPTTLYVEDISEPPLHDFHHHHHHHH | 0.00676 | 9.47e-05 | 1.4e+07 | – | – |
| Hu-vWF[764-1270]-8His S764P-S766L (other) PLLCRPPMVKLVCPADNLRAEGLECTKTCQNYDLECMSMGCVSGCLCPPGMVRHENRCVALERCPCFHQGKEYAPGETVKIGCNTCVCRDRKWNCTDHVCDATCSTIGMAHYLTFDGLKYLFPGECQYVLVQDYCGSNPGTFRILVGNKGCSHPSVKCKKRVTILVEGGEIELFDGEVNVKRPMKDETHFEVVESGRYIILLLGKALSVVWDRHLSISVVLKQTYQEKVCGLCGNFDGIQNNDLTSSNLQVEEDPVDFGNSWKVSSQCADTRKVPLDSSPATCHNNIMKQTMVDSSCRILTSDVFQDCNKLVDPEPYLDVCIYDTCSCESIGDCACFCDTIAAYAHVCAQHGKVVTWRTATLCPQSCEERNLRENGYECEWRYNSCAPACQVTCQHPEPLACPVQCVEGCHAHCPPGKILDELLQTCVDPEDCPVCEVAGRRFASGKKVTLNPSDPEHCQICHCDVVNLTCEACQEPGGLVVPPTDAPVSPTTLYVEDISEPPLHDFHHHHHHHH | 0.00606 | 8.74e-05 | 1.44e+07 | – | – |
| Hu-vWF[764-1270]-8His S764P-S766F (other) PLFCRPPMVKLVCPADNLRAEGLECTKTCQNYDLECMSMGCVSGCLCPPGMVRHENRCVALERCPCFHQGKEYAPGETVKIGCNTCVCRDRKWNCTDHVCDATCSTIGMAHYLTFDGLKYLFPGECQYVLVQDYCGSNPGTFRILVGNKGCSHPSVKCKKRVTILVEGGEIELFDGEVNVKRPMKDETHFEVVESGRYIILLLGKALSVVWDRHLSISVVLKQTYQEKVCGLCGNFDGIQNNDLTSSNLQVEEDPVDFGNSWKVSSQCADTRKVPLDSSPATCHNNIMKQTMVDSSCRILTSDVFQDCNKLVDPEPYLDVCIYDTCSCESIGDCACFCDTIAAYAHVCAQHGKVVTWRTATLCPQSCEERNLRENGYECEWRYNSCAPACQVTCQHPEPLACPVQCVEGCHAHCPPGKILDELLQTCVDPEDCPVCEVAGRRFASGKKVTLNPSDPEHCQICHCDVVNLTCEACQEPGGLVVPPTDAPVSPTTLYVEDISEPPLHDFHHHHHHHH | 0.00741 | 0.0001 | 1.35e+07 | – | – |

More lines, in order of falling Kd, values ahead:

| Kd [nM] | koff [s⁻¹] | kon [M⁻¹ s⁻¹] | fold decrease in off-rate against wild type vWF [fold] | fold increase in affinity against wild type vWF [fold] | Binder |
| --- | --- | --- | --- | --- | --- |
| 0.0217 | 0.000388 | 1.79e+07 | – | – | Hu-vWF[764-1270]-8His S764P-S766G (other) PLGCRPPMVKLVCPADNLRAEGLECTKTCQNYDLECMSMGCVSGCLCPPGMVRHENRCVALERCPCFHQGKEYAPGETVKIGCNTCVCRDRKWNCTDHVCDATCSTIGMAHYLTFDGLKYLFPGECQYVLVQDYCGSNPGTFRILVGNKGCSHPSVKCKKRVTILVEGGEIELFDGEVNVKRPMKDETHFEVVESGRYIILLLGKALSVVWDRHLSISVVLKQTYQEKVCGLCGNFDGIQNNDLTSSNLQVEEDPVDFGNSWKVSSQCADTRKVPLDSSPATCHNNIMKQTMVDSSCRILTSDVFQDCNKLVDPEPYLDVCIYDTCSCESIGDCACFCDTIAAYAHVCAQHGKVVTWRTATLCPQSCEERNLRENGYECEWRYNSCAPACQVTCQHPEPLACPVQCVEGCHAHCPPGKILDELLQTCVDPEDCPVCEVAGRRFASGKKVTLNPSDPEHCQICHCDVVNLTCEACQEPGGLVVPPTDAPVSPTTLYVEDISEPPLHDFHHHHHHHH |
| 0.014 | 0.000301 | 2.15e+07 | – | – | Hu-vWF[764-1270]-8His S764P-S766K (other) PLKCRPPMVKLVCPADNLRAEGLECTKTCQNYDLECMSMGCVSGCLCPPGMVRHENRCVALERCPCFHQGKEYAPGETVKIGCNTCVCRDRKWNCTDHVCDATCSTIGMAHYLTFDGLKYLFPGECQYVLVQDYCGSNPGTFRILVGNKGCSHPSVKCKKRVTILVEGGEIELFDGEVNVKRPMKDETHFEVVESGRYIILLLGKALSVVWDRHLSISVVLKQTYQEKVCGLCGNFDGIQNNDLTSSNLQVEEDPVDFGNSWKVSSQCADTRKVPLDSSPATCHNNIMKQTMVDSSCRILTSDVFQDCNKLVDPEPYLDVCIYDTCSCESIGDCACFCDTIAAYAHVCAQHGKVVTWRTATLCPQSCEERNLRENGYECEWRYNSCAPACQVTCQHPEPLACPVQCVEGCHAHCPPGKILDELLQTCVDPEDCPVCEVAGRRFASGKKVTLNPSDPEHCQICHCDVVNLTCEACQEPGGLVVPPTDAPVSPTTLYVEDISEPPLHDFHHHHHHHH |
| 0.0127 | 0.00012 | 9.41e+06 | – | – | Hu-vWF[764-1270]-8His S764P-S766D (other) PLDCRPPMVKLVCPADNLRAEGLECTKTCQNYDLECMSMGCVSGCLCPPGMVRHENRCVALERCPCFHQGKEYAPGETVKIGCNTCVCRDRKWNCTDHVCDATCSTIGMAHYLTFDGLKYLFPGECQYVLVQDYCGSNPGTFRILVGNKGCSHPSVKCKKRVTILVEGGEIELFDGEVNVKRPMKDETHFEVVESGRYIILLLGKALSVVWDRHLSISVVLKQTYQEKVCGLCGNFDGIQNNDLTSSNLQVEEDPVDFGNSWKVSSQCADTRKVPLDSSPATCHNNIMKQTMVDSSCRILTSDVFQDCNKLVDPEPYLDVCIYDTCSCESIGDCACFCDTIAAYAHVCAQHGKVVTWRTATLCPQSCEERNLRENGYECEWRYNSCAPACQVTCQHPEPLACPVQCVEGCHAHCPPGKILDELLQTCVDPEDCPVCEVAGRRFASGKKVTLNPSDPEHCQICHCDVVNLTCEACQEPGGLVVPPTDAPVSPTTLYVEDISEPPLHDFHHHHHHHH |
| 0.00523 | 5.14e-05 | 9.84e+06 | 22 | 30 | Hu-vWF[764-1270]-8His S764P-S766I (other) PLICRPPMVKLVCPADNLRAEGLECTKTCQNYDLECMSMGCVSGCLCPPGMVRHENRCVALERCPCFHQGKEYAPGETVKIGCNTCVCRDRKWNCTDHVCDATCSTIGMAHYLTFDGLKYLFPGECQYVLVQDYCGSNPGTFRILVGNKGCSHPSVKCKKRVTILVEGGEIELFDGEVNVKRPMKDETHFEVVESGRYIILLLGKALSVVWDRHLSISVVLKQTYQEKVCGLCGNFDGIQNNDLTSSNLQVEEDPVDFGNSWKVSSQCADTRKVPLDSSPATCHNNIMKQTMVDSSCRILTSDVFQDCNKLVDPEPYLDVCIYDTCSCESIGDCACFCDTIAAYAHVCAQHGKVVTWRTATLCPQSCEERNLRENGYECEWRYNSCAPACQVTCQHPEPLACPVQCVEGCHAHCPPGKILDELLQTCVDPEDCPVCEVAGRRFASGKKVTLNPSDPEHCQICHCDVVNLTCEACQEPGGLVVPPTDAPVSPTTLYVEDISEPPLHDFHHHHHHHH |
